We go through two molecules from PMC5014153, “Overexpression of an Arabidopsis cysteine-rich receptor-like protein kinase, CRK5, enhances abscisic acid sensitivity and confers drought tolerance”.

Holding throughout (experiment): EMSA; 25 mM Hepes pH 8.0, 40 mM KCl, 5 mM MgCl2, 1 mM DTT, 1 mM EDTA, 8% glycerol; 50 ng protein, 20 fmol probe; 30 min at 28 C; native PAGE
A general note: Mobility shift assays separate free from complexed probe on a gel.

The target of data set [1] is 6xHis-WRKY18 (Arabidopsis thaliana, UniProt Q9C5T4 1-310). As to conditions: protein: recombinant, tags: N-terminal Trx, HRV 3C site (pET48b), chain copies: 2, label: 5' biotin on each strand, blunt.
In data set [2] the target is 6xHis-WRKY60 (Arabidopsis thaliana, UniProt Q9SK33 1-271). As to conditions: protein: recombinant, tags: N-terminal Trx, HRV 3C site (pET48b), label: 5' biotin on each strand, blunt.
Data set [3] concerns the target T1, 6xHis-WRKY40 (Arabidopsis thaliana, UniProt Q9SAH7 1-302).
T1 sequence: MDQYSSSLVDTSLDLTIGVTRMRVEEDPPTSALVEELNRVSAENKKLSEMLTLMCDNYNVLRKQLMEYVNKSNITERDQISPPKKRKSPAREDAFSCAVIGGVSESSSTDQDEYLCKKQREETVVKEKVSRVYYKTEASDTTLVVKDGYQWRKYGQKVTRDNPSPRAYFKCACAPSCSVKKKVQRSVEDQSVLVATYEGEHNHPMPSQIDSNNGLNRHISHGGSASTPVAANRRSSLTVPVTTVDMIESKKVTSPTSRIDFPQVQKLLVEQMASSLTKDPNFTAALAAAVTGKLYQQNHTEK
The settings on record: protein: recombinant, tags: N-terminal Trx, HRV 3C site (pET48b), label: 5' biotin on each strand, blunt.

Substitutions are numbered along the chain they refer to.

Chain of 6xHis-WRKY18 (Q9C5T4 whole entry): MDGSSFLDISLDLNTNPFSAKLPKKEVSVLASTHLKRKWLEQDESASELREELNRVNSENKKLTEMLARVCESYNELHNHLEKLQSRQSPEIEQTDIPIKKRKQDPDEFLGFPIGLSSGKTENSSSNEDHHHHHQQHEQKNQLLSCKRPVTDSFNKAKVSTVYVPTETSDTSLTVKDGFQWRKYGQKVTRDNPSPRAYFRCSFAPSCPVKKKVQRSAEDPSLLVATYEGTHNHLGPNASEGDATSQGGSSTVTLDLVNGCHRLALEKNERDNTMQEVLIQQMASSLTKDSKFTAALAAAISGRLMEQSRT
Chain of 6xHis-WRKY60 (Q9SK33 whole entry): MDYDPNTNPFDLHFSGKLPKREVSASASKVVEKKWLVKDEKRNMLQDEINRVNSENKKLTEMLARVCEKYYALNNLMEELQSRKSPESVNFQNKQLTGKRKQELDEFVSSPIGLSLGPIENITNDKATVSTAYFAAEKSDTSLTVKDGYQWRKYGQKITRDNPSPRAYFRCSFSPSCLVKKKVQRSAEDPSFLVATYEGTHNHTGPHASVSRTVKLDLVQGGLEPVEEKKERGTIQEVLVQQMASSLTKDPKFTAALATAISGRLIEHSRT

B1: ProCRK5-1 (dsDNA)
DNA 1: TTGATGTTACTCGTCTAGTTGACCTTGACTTGCAAGATATTGTATTATTTTACAAAAACCAAAATTTGACTGGCTTGGCT
DNA 2: AGCCAAGCCAGTCAAATTTTGGTTTTTGTAAAATAATACAATATCTTGCAAGTCAAGGTCAACTAGACGAGTAACATCAA
As to B1, the binding result was “binds” in data set [1], “no binding” in data set [2] and “binds” in data set [3].

B2: ProCRK5-1 mW1 (dsDNA)
DNA 1: B1 DNA 1 with G68A, C70A
DNA 2: B1 DNA 2 with G11T, C13T
B2: the binding result in data set [1] and in data set [3] was “binds” throughout.
